Laboratory results published in article PMC11803495.

Assays:
MBP-dPPR-nad7-Δ = target: T1, MBP-dPPR-nad7-Δ (synthetic construct (13 P-type PPR …)); experiment: EMSA
T1 chain: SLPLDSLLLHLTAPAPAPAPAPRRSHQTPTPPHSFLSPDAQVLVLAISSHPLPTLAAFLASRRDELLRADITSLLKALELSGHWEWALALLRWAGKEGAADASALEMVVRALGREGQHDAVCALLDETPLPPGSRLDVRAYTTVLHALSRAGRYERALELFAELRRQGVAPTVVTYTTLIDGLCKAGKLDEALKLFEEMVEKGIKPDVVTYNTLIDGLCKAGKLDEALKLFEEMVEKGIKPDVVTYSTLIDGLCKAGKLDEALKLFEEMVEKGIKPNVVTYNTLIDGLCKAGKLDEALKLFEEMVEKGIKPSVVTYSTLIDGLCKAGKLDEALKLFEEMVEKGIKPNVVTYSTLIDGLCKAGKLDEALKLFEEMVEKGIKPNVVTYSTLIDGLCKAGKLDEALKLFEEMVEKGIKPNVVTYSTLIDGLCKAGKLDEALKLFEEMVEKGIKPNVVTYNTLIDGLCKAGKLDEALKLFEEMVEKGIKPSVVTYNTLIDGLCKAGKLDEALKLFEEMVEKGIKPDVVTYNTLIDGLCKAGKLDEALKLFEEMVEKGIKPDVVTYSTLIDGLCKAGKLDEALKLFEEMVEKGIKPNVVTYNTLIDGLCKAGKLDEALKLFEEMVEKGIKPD

MBP-dPPR-nad7-DYW = target: T2, MBP-dPPR-nad7-DYW (synthetic construct (13 P-type PPR …)); experiment: EMSA
T2 chain: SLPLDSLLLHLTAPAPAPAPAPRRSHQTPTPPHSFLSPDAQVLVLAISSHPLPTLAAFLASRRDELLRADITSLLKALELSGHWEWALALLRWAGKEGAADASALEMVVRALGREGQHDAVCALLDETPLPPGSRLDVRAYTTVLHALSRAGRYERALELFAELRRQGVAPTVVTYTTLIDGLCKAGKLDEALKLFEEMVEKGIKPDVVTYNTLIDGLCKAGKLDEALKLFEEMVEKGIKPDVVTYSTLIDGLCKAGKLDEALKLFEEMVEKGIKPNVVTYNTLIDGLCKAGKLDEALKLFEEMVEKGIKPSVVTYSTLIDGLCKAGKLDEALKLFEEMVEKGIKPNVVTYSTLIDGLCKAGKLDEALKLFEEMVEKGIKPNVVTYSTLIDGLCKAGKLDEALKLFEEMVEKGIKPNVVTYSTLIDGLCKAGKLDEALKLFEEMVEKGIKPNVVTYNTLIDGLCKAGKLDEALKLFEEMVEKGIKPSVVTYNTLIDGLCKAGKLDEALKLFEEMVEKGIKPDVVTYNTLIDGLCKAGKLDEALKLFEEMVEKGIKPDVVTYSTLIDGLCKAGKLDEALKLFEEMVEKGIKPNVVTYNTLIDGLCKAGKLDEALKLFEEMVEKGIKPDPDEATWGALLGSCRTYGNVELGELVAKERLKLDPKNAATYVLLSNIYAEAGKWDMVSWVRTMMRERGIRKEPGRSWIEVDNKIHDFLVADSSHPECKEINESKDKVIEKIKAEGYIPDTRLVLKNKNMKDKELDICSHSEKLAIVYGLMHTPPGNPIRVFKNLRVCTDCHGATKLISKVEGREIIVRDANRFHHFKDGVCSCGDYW

CUUUUGAAUUGCGAGGUACCAUUACGAG (ssRNA) [nad7 control]
binding result (MBP-dPPR-nad7-Δ): no binding
binding result (MBP-dPPR-nad7-DYW): no binding
